From patent US20250011418A1 (ZIELBIO, published 2025) come the findings set out here.

Assay [1] addresses T1, Reb-His (Reb, a sub-fragment of Sec8, tagged with a polyhistidine (His) tag).
T1 construct: also called Reb-His peptide
T1 chain: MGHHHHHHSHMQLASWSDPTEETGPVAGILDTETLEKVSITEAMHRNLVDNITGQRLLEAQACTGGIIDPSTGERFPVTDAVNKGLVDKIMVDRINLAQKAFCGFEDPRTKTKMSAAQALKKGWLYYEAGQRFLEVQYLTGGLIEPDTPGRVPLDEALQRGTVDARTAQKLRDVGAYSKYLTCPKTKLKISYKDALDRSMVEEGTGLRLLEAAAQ
Nature of the assay: ELISA on REB-HIS, absorbance 650 nm; no unit stands beside the number, the concentration axis is in nM.

Assay [2] addresses T2, Sec8-His (section 8 (Sec8), an antigenic region of CSP-1, tagged with a polyhistidine (His) tag).
T2 construct: also called Sec8-His antigen
T2 chain: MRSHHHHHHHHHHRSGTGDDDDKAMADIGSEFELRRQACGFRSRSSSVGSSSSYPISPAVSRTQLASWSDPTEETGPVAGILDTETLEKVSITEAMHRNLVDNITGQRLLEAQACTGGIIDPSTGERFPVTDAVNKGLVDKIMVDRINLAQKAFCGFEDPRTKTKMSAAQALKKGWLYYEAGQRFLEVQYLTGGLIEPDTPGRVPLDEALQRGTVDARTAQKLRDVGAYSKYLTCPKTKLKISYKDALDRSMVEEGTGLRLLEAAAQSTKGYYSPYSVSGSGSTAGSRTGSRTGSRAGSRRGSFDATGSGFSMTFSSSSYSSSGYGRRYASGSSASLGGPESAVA
Description: ELISA on Sec8-His (target per paragraph 36), absorbance 650 nm; no unit stands beside the number, the concentration axis is in nM; number as printed beside the name, but it fits the circle curve better than the square curve.

The target in assay [3] is T2, Sec8-His (section 8 (Sec8), an …). Nature of the assay: ELISA on Sec8-His (target per paragraph 36), absorbance 650 nm; curve assigned by the marker in the legend. Background: ELISA stands for enzyme-linked immunosorbent assay.
The target is the same in assay [4]. Nature of the assay: ELISA on Sec8-His (target per paragraph 36), absorbance 650 nm; no unit stands beside the number, the concentration axis is in nM; number as printed beside the name, but it fits the square curve better than the circle curve.
Assay [5] shares this target. Description: BLI (Octet), single shot: antibody on anti-human IgG tips, 24 nM Sec8-His. The method, then:
After humanization, the antibodies were tested for their capability to bind to an antigenic region of CSP-1 called section 8 (Sec8). Antigen binding was assessed by single-shot Octet analysis. Antibodies were loaded onto anti-human IgG tips, and the loaded tips were dipped into wells containing the Sec8-His antigen. Scouting experiments were used to determine ideal conditions for loading (10 minute incubation in 1 μg/mL IgG) and antigen binding (5 minute incubation in 24 nM Sec8-His, followed by a 5 minute dissociation step in buffer). Two negative controls were included with each experiment. First, a tip was loaded with irrelevant IgG dipped into 24 nM Sec8-His to control for non-specific interactions between the tip and the antigen. Next, tips loaded with humanized 1D7 variants were dipped into 24 nM GST-His to control for off-target binding of the antibody (a significant risk if a given variant is destabilized and/or exposes significant hydrophobic surface). The data from the irrelevant IgG control were subtracted from the data obtained with the […]-loaded tips. The mean and standard deviation of the signal change values for the GST-His control wells were used to calculate a threshold for positive binding (mean+3 standard deviations of the GST-His signal). Variants that were below this threshold are considered to have no specific binding to Sec8.
(BLI is a label-free optical method that tracks binding on a fibre tip over time.)

In assay [6] the target is T1, Reb-His (Reb, a sub-fragment of Sec8, …). Description: ELISA on REB-HIS, absorbance 650 nm against concentration in nM on a log axis.
For assay [7] the target is unchanged. Nature of the assay: ELISA on REB-HIS, absorbance 650 nm; no unit stands beside the number, the concentration axis is in nM.
The target of assay [8] is T2, Sec8-His (section 8 (Sec8), an …). Nature of the assay: ELISA on Sec8-His. The procedure:
(§1) The binding of humanized anti-CSP-1 antibody (Ab51) to an antigenic region of CSP-1 called section 8 (Sec8) was measured using ELISA.

Assay [9] deals with T1, Reb-His (Reb, a sub-fragment of Sec8, …). Nature of the assay: ELISA on REB-HIS, absorbance 650 nm; no unit stands beside the number, the concentration axis is in nM. The method, then:
Furthermore, the binding of Ab51 to a sub-fragment of Sec8, called Reb, was measured using ELISA.

For assay [10], the target named is T2, Sec8-His (section 8 (Sec8), an …). Description: ELISA, absorbance 650 nm against concentration in nM on a log axis. The method, then:
as §1

Residue numbers refer to the chain shown, from its start. Read-outs that look alike come from different tables or passages of the source.

B1: murine anti-CSP-1 antibody 1H11 (antibody, V domains shown)
VH: QIQLVQSGPELKKPGETVKISCKASGYTFTDYSMHWVKQAPGKGLKWMGWINTETGEPTYADDFKGRFAFSLETSASTAYLQINNLKNEDTATYFCAPGGFAYWGQGTLVTVSA
VL: DIVMTQAAPSVPVTPGESVSISCRSSKSLLHSNGNTYLYWFLQRPGQSPQLLIYRMSNLASGVPDRFSGSGSGTAFTLRISRVEAEDVGVYYCMQHLEYPLTFGAGTKLELKR
notes: Murine antibody; also called 1H11B5
By EC50 is commonly meant the concentration giving half of the maximal effect. As a reminder, the Kd is the free concentration of one partner at which half of the binding sites on the other are occupied at equilibrium, for simple one-to-one binding. Higher therefore signals a looser complex. Usually EC50 (read off the curve) stands for the midpoint of the concentration-response curve. A low value points to greater potency. Molecule B1 showed a concentration giving a half-maximal response (EC50) in [1] of 0.531 nM. In assay [2], this molecule returned an equilibrium dissociation constant (Kd) of 0.583 nM. Moreover, in assay [3], the concentration giving a half-maximal response (EC50 (read off the curve)) is approximately 0.1 nM.

B2: antibody-drug conjugate comprising the murine anti-CSP-1 antibody 1H11 and the chemotherapeutic drug SN38 (antibody, V domains shown)
VH: B1 VH
VL: B1 VL
modifications: SN38 (small-molecule drug) is conjugated to the antibody. The linker, the conjugation residues, the chain that carries it and the drug-to-antibody ratio are not stated, and the letters cannot carry it.
notes: also called 1H11-SN38 conjugate
Turning to B2, the “EC50 (read off the curve)” value in assay [3] was approximately 0.6 nM. In addition, in [4], the dissociation constant Kd came out at 0.14 nM.

B3: humanized anti-CSP-1 antibody, Antibody Number 42 (Table 1) (antibody, human IgG1, V domains shown)
VH: QIQLVQSGSELKKPGASVKVSCKASGYTFTDYSMHWVRQAPGQGLEWMGWINTETGEPTYAQGFTGRFVFSLDTSVSTAYLQISSLKAEDTAVYFCAPGGFAYWGQGTLVTVSS
VL: DIVMTQSPLSLPVTPGEPASISCRSSKSLLHSNGNTYLYWFLQKPGQSPQLLIYRMSNLASGVPDRFSGSGSGTDFTLKISRVEAEDVGVYYCMQHLEYPLTFGAGTKLELK
notes: also called Antibody 42
Consider B3, for which the binding result in [5] is “binds”.

B4: humanized anti-CSP-1 antibody, Antibody Number 8 (Table 1) (antibody, human IgG1, V domains shown)
VH: QIQLVQSGPEVKKPGASVKISCKASGYTFTDYSMHWVRQAPGQGLEWMGWINTETGEPTYAQKFQGRFTFTLDTSTSTAYLEISSLRSEDTAVYFCAPGGFAYWGQGTLVTVSS
VL: B3 VL with S7A, P8A, L9P, L11V, P18S, A19V, K44R, D75A, K79R
notes: also called Antibody 8
In the case of B4, in [5], the binding result is reported as “binds”.

B5: humanized anti-CSP-1 antibody, Antibody Number 44 (Table 1) (antibody, human IgG1, V domains shown)
VH: EVQLVESGGGLVKPGGSLRLSCAASGFTFSRYGMNWVRQAPGKGLEWVSSISIGGTYTYYADSVKGRFTISRDNAKNSLYLQMNSLRAEDTAVYYCARRGYGNYSYYGMDYWGQGTLVTVSS
VL: B3 VL with N35I, F41Y, R55Q, M94A, H96N, Y99L, A105Q, L111I
notes: also called Antibody 44
Consider B5, for which, in assay [5], the binding result is given as “binds”.

B6: humanized anti-CSP-1 antibody, Antibody Number 43 (Table 1) (antibody, human IgG1, V domains shown)
VH: B5 VH
VL: B3 VL with N35I, F41Y, R55Q, L59R, M94A, H96N, Y99L, A105Q, L111I
notes: also called Antibody 43
For B6, in assay [5], the binding result is recorded as “binds”.

B7: humanized anti-CSP-1 antibody, Antibody Number 41 (Table 1) (antibody, human IgG1, V domains shown)
VH: B3 VH
VL: B3 VL with L59R, A105Q, L111I
notes: also called Antibody 41
Regarding B7, the binding result in assay [5] is given as “binds”.

B8: humanized anti-CSP-1 antibody, Antibody Number 48 (Table 1) (antibody, human IgG1, V domains shown)
VH: B3 VH
VL: B3 VL with M56L
notes: also called Antibody 48
Turning to B8, the binding result in assay [5] is “binds”.

B9: humanized anti-CSP-1 antibody, Antibody Number 40 (Table 1) (antibody, human IgG1, V domains shown)
VH: B3 VH with I2V, H35N, F95Y
VL: B3 VL with L59R, A105Q, L111I
notes: also called Antibody 40
For the molecule B9, in [5], the binding result is “binds”.

B10: murine anti-CSP-1 antibody 1D7 (hybridoma clone) (antibody, V domains shown)
VH: EVQLVESGGDLVKPGGSLKLSCAASGFTFSRYGMSWVRQTPDKRLEWVATISIGGTYTYYPDSMKGRFTISRDNAKNTLYLQMSSLKSEDTAMYYCARRGYGNYSYYGMDYWGQGTSVTVSS
VL: DIVMTQAAFSNPVTLGTSASISCRSSKSLLHSNGITYLYWYLQKPGQSPQLLIYQMSNLASGVPDRFSSSGSGTDFTLRISRVEAEDVGVYYCAQNLELPLTFGAGTKLELK
notes: Murine antibody
With B10, the “EC50 (read off the curve)” value in assay [6] is approximately 0.4 nM. In assay [7], this molecule yielded a half-maximal effective concentration (EC50) of 0.365 nM.

B11: humanized anti-CSP-1 antibody, Antibody Number 45 (Table 1) (antibody, human IgG1, V domains shown)
VH: B5 VH
VL: B3 VL with N35I, F41Y, R55Q, G69S, M94A, H96N, Y99L, A105Q, L111I
notes: also called Antibody 45
With B11, the binding result in [5] is “binds”.

B12: humanized anti-CSP-1 antibody, Antibody Number 49 (Table 1) (antibody, human IgG1, V domains shown)
VH: EVQLVESGGGLVQPGGSLRLSCAASGFTFSRYGMSWVRQAPGKRLEWVATISIGGTYTYYPDSMKGRFTISRDNSKNTLYLQMNSLRAEDTAMYYCARRGYGQYSYYGMDYWGQGTLVTVSS
VL: B10 VL with A7S, F9L, T17Q, L59R, R79K, A105Q, L111I
notes: also called Antibody 49
Take B12: the binding result in assay [5] was “binds”.

B13: humanized anti-CSP-1 antibody, Antibody Number 50 (Table 1) (antibody, human IgG1, V domains shown)
VH: B12 VH with M109L
VL: B10 VL with A7S, F9L, T17Q, L59R, R79K, A105Q, L111I
notes: also called Antibody 50
With B13, the binding result in [5] is recorded as “binds”.

B14: humanized anti-CSP-1 antibody, Antibody 51 (Ab51) (antibody, V domains shown)
VH: B12 VH with M109L
VL: B10 VL with A7S, F9L, T17Q, N33Q, L59R, R79K, A105Q, L111I
notes: also called Antibody Number 51; huZB131
Regarding B14, the affinity in assay [8], expressed as Kd, was 0.441 nM. In [9], this molecule registered a concentration for a half-maximal effect (EC50) of 0.124 nM. Further, in [10], the half-maximal effective concentration (EC50 (read off the curve)) is approximately 0.4 nM.

B15: humanized anti-CSP-1 antibody, Antibody Number 46 (Table 1) (antibody, human IgG1, V domains shown)
VH: B5 VH with N35S
VL: B3 VL with N35I, F41Y, R55Q, G69S, M94A, H96N, Y99L, A105Q, L111I
notes: also called Antibody 46
B15: the binding result in assay [5] was “binds”.

B16: humanized anti-CSP-1 antibody, Antibody Number 39 (Table 1) (antibody, human IgG1, V domains shown)
VH: B12 VH with R44G, M93V, Q103N
VL: B10 VL with A7S, F9L, N11L, T17Q, L59R, R79K, A105Q, L111I
notes: also called Antibody 39
B16: the binding result in assay [5] is “binds”.
